The values that follow come from US20210095028A1 (NANJING LEGEND BIOTECH, published 2021).

First the molecules themselves.
T1: Human TIGIT protein with HIS tag (human, UniProt Q495A1 22-141)
T1 construct: A soluble analyte is probably only the extracellular part; also called human TIGIT recombinant protein; not shown: HIS tag
T1 sequence: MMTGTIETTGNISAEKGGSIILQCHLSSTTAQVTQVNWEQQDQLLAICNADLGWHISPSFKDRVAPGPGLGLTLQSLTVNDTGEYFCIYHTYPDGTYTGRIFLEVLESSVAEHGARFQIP

T2: human TIGIT over-expressed on cells (human, UniProt Q495A1 22-244)
T2 sequence: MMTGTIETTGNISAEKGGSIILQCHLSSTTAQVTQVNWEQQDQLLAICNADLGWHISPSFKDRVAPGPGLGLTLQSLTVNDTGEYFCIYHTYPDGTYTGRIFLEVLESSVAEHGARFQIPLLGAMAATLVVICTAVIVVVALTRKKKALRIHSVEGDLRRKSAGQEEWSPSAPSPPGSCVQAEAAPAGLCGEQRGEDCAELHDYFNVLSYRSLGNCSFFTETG

B1: 64G1E9B4VH1_VL1.M1 (antibody, human IgG1, V domains shown)
VH: EVQLVQSGAEVKKPGSSVKVSCKASGYTFTEHVIHWVRQAPGQGLEWMGGFNPNHDGTIYNQIFRGRVTITADKSTSTAYMELSSLRSEDTAVYYCARAAKLLFAMDYWGQGTTVTVSS
VL: DIQMTQSPSSLSASVGDRVTITCRASQHVSNAVVWYQQKPGKAPKLLIYSPSYRFTGVPSRFSGSGSGTDFTLTISSLQPEDFATYYCQQHYSTPWTFGGGTKVEIK
notes: Humanized antibody, variable domains fused with the constant region of human IgG1; also called 64G1VH1_VL1.M1
B2: 64G1E9B4VH1.M1_VL1.M1 (antibody, human IgG1, V domains shown)
VH: B1 VH with D56G
VL: B1 VL
notes: Humanized antibody, variable domains fused with the constant region of human IgG1; also called 64G1VH1.M1_VL1.M1
B3: 64G1E9B4 chimeric (antibody, V domains shown)
VH: EVQLQQSGPELVKPGASVKISCKTSGYTFTEHVIHWVKQSHGKSLEWIGGFNPNHDGTIYNQIFRGKATLTVDKSSSTAYMELRSLTSEDSAVYFCTRAAKLLFAMDYWGQGTSVTVSS
VL: DIVMTQSHKFMSTSIGDRVSITCKASQHVSNAVVWYQQKPGQSPKLLIYSPSYRFTGVPDRFTGSGSGTDFTFTISSVQAEDLAVYYCQQHYSTPWTFGGGTKLEIK
notes: also called 64G1 Chimeric
B4: 100C4E7D11 chimeric (antibody, V domains shown)
VH: EVMLVESGGGLVKPGGSLKLSCAASGFTFSFYTMSWVRQTPEKRLEWVATISSGGGSTYYSDSVKGRFTISRDNAKNNLYLQMTSLRSEDTALYYCSRSLPVDYWGQGTTLTVSS
VL: QIVLTQSPAIMSASLGERVTMTCTASSSVSSTYLHWYQQKPGSSPKLWIYSTSNLASGVPARFSGSGSGTSYSLTISSMEAEDAATYYCHLYHHSPYTFGGGTKLEIK
notes: also called 100C4 Chimeric
B5: 100C4E7D11VH1_VL1 (antibody, V domains shown)
VH: EVQLVESGGGLVKPGGSLRLSCAASGFTFSFYTMSWVRQAPGKGLEWVSTISSGGGSTYYSDSVKGRFTISRDNAKNSLYLQMNSLRAEDTAVYYCARSLPVDYWGQGTTVTVSS
VL: EIVLTQSPGTLSLSPGERATLSCTASSSVSSTYLHWYQQKPGQAPRLLIYSTSNLASGIPDRFSGSGSGTDFTLTISRLEPEDFAVYYCHLYHHSPYTFGGGTKVEIK
notes: Humanized antibody, variable domains fused with the constant region of human IgG1; also called 100C4VH1_VL1

Where a chain is given by its changes, count along the chain named.

The first test has as its target T1, Human TIGIT protein with HIS tag. Description: SPR Biacore T200; antibody Fc-captured, TIGIT-His analyte. Here is the method:
Binding kinetics of the chimeric anti-human TIGIT monoclonal antibodies and the humanized anti-human TIGIT monoclonal antibodies to human TIGIT were determined using a Surface Plasmon Resonance (SPR) biosensor, BIACORE® T200 (GE Healthcare). Different concentrations of the chimeric anti-human TIGIT monoclonal antibodies or humanized anti-human TIGIT monoclonal antibodies were prepared starting at 50 nM with a 3-fold serial dilution. Each chimeric anti-human TIGIT monoclonal antibody or each humanized anti-human TIGIT monoclonal antibody was immobilized on the sensor chip through the Fc capture method. Human TIGIT protein with a HIS tag was used as the analyte. The dissociation (kd) and association (kₐ) rate constants were obtained using the BIACORE® T200 evaluation software. The apparent equilibrium dissociation constants (KD) were calculated from the ratio of kd over kₐ.
For B1, the affinity, expressed as Kd, was 0.15 nM; the dissociation rate constant (koff) came to 8.8e-05 s⁻¹; the kon is 590000 M⁻¹ s⁻¹.

In the case of B2, the Kd turned out to be 0.17 nM, the koff worked out at 0.0001 s⁻¹ and the kon was 630000 M⁻¹ s⁻¹.

Molecule B3 showed a Kd of 0.07 nM, a koff of 6.4e-05 s⁻¹ and a kon of 910000 M⁻¹ s⁻¹.

For B4, binding was put at a Kd of 0.17 nM, the koff was determined as 0.00016 s⁻¹ and the kon was 910000 M⁻¹ s⁻¹.

B5: the Kd came to 0.57 nM, the koff stood at 0.00035 s⁻¹ and the kon is 610000 M⁻¹ s⁻¹.

For a further test, the target named is T3, cynomolgus TIGIT over-expressed on CHO-K1 cells (cynomolgus, UniProt A0A7N9I9V4 89-312).
T3 construct: whole, on cells; also called CHO-K1/cynomolgus TIGIT cells
T3 sequence (A0A7N9I9V4 entry or part of it): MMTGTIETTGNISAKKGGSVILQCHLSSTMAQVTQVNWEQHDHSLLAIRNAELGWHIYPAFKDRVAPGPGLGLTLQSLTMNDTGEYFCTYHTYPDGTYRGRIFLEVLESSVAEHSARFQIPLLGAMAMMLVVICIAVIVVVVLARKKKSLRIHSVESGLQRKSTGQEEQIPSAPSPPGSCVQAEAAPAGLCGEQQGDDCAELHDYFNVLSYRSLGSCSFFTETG
Briefly: FACS, CHO-K1 cells over-expressing cynomolgus TIGIT. Here is the method: (§1) Binding affinities of the chimeric anti-human TIGIT monoclonal antibodies and the humanized anti-human TIGIT monoclonal antibodies to human or cynomolgus TIGIT over-expressed on CHO-K1 cells were determined using a fluorescence-activated cell sorting (FACS)-based assay. […] The mixture was equilibrated for 30 minutes at room temperature and washed three times with FACS buffer (PBS containing 1% BSA). iFluor labeled goat anti-mouse IgG as the secondary antibody was added and incubated at room temperature for 45 min. Finally, the cells were washed 3 time with PBS, and the signal was read by FACS BD Calibur. Data was analyzed with PRISM™ (GraphPad Software, San Diego, Calif.) using non-linear regression and EC₅₀ values were calculated.
A general note: Flow cytometry measures light scatter and fluorescence of single cells or particles in a stream.
As to B1, the “Bottom (best-fit)” value was found to be 3010, the EC50 came to 1.65 nM and the “Top (best-fit)” value worked out at 24700.

Take B2: the “Bottom (best-fit)” value stood at 5530, the EC50 came out at 0.91 nM and the “Top (best-fit)” value turned out to be 29200.

For B3, the “Bottom (best-fit)” value stood at 3920, a half-maximal response (EC50) required 1.33 nM and the “Top (best-fit)” value amounted to 25600.

For B4, the “Bottom (best-fit)” value was found to be 4880, a half-maximal response (EC50) required 1.03 nM and the “Top (best-fit)” value came to 23700.

On to B5, for which the “Bottom (best-fit)” value stood at 2830, the concentration giving a half-maximal response (EC50) was 2.85 nM and the “Top (best-fit)” value came out at 29800.

A further test has as its target T2, human TIGIT over-expressed on cells. Briefly: cell-based or functional assay.
As to B1, the “IL-2 secretion in T cell activation, Bottom (best-fit)” value (“IL-2 secretion … Bottom (best-fit)” for short) was 182; the “IL-2 secretion in T cell activation, EC50” value (“IL-2 secretion … EC50” for short) was 1.27 nM; the “IL-2 secretion in T cell activation, Top (best-fit)” value (“IL-2 secretion … Top (best-fit)” below) was 508.

Take B2: the “IL-2 secretion … Bottom (best-fit)” value worked out at 209; the “IL-2 secretion … EC50” value stood at 0.63 nM; the “IL-2 secretion … Top (best-fit)” value came to 467.

Regarding B3, the “IL-2 secretion … Bottom (best-fit)” value is 204; the “IL-2 secretion … EC50” value was determined as 0.66 nM; the “IL-2 secretion … Top (best-fit)” value is 462.

As to B4, the “IL-2 secretion … Bottom (best-fit)” value amounted to 247; the “IL-2 secretion … EC50” value was found to be 2.14 nM; the “IL-2 secretion … Top (best-fit)” value worked out at 419.

Consider B5, for which the “IL-2 secretion … Bottom (best-fit)” value came out at 217; the “IL-2 secretion … EC50” value turned out to be 5.21 nM; the “IL-2 secretion … Top (best-fit)” value came to 435.

The next test has the same target. Description: competition FACS, CHO cells expressing human TIGIT; competitor PVR recombinant protein (column headed EC50, text says IC50). Here is the method:
(§2) To assess the competitive binding on human TIGIT between the chimeric anti-human TIGIT monoclonal antibodies or the humanized anti-human TIGIT monoclonal antibodies and PVR, the chimeric anti-human TIGIT monoclonal antibody or the humanized anti-human TIGIT monoclonal antibody samples were prepared (starting at 300 nM, ≤3-fold serial dilution with 10 concentrations). CHO cells expressing human TIGIT were dissociated from adherent culture flasks and mixed with varying concentrations of each chimeric anti-human TIGIT monoclonal antibody or the humanized anti-human TIGIT monoclonal antibody and 5 μg/ml […] fusion protein having a biotin label. The mixture was equilibrated for 30 minutes at room temperature and washed three times with FACS buffer (PBS containing 1% BSA). PE/Cy5 Streptavidin secondary antibody was then added to the mixtures and incubated for 15 minutes at room temperature. Subsequently, the cells were washed with FACS buffer and analyzed by flow cytometry. Data was analyzed with PRISM™ (GraphPad Software, San Diego, Calif.) using non-linear regression, and IC₅₀ values were calculated (FIG. 7 and Table 13).
As for B1, the concentration for half-maximal inhibition (IC50) is 0.79 nM.

For the molecule B2, the IC50 was 0.35 nM.

For the molecule B3, the IC50 worked out at 0.51 nM.

B4: the IC50 came out at 0.49 nM.

Turning to B5, the IC50 came to 1.29 nM.

The target is the same in a further test. Briefly: competition FACS, CHO cells expressing human TIGIT; competitor PVR recombinant protein. The procedure:
as §2
Regarding B1, the “Bottom (best-fit)” value worked out at 139 and the “Top (best-fit)” value turned out to be 820.

Consider B2, for which the “Bottom (best-fit)” value worked out at 201 and the “Top (best-fit)” value was determined as 508.

In the case of B3, the “Bottom (best-fit)” value amounted to 197 and the “Top (best-fit)” value turned out to be 772.

B4: the “Bottom (best-fit)” value was found to be 170 and the “Top (best-fit)” value came to 678.

As for B5, the “Bottom (best-fit)” value was determined as 150 and the “Top (best-fit)” value was determined as 755.

For the next test the target is unchanged. Description: FACS, CHO-K1 cells over-expressing human TIGIT. Here is the method: as §1
Regarding B1, the “Bottom (best-fit)” value was 3190, the EC50 was 0.89 nM and the “Top (best-fit)” value is 22900.

In the case of B2, the “Bottom (best-fit)” value was determined as 1530, the response was half-maximal at 0.43 nM (EC50) and the “Top (best-fit)” value stood at 24700.

Take B3: the “Bottom (best-fit)” value was 3600, the concentration giving a half-maximal response (EC50) is 0.47 nM and the “Top (best-fit)” value is 23400.

For the molecule B4, the “Bottom (best-fit)” value amounted to 4160; the midpoint of the response, the EC50, lay at 0.58 nM; the “Top (best-fit)” value worked out at 25600.

Turning to B5, the “Bottom (best-fit)” value was 4110, the EC50 came out at 1.15 nM and the “Top (best-fit)” value stood at 25200.

In general, Kd refers to the free concentration of one partner at which half of the binding sites on the other are occupied at equilibrium, for simple one-to-one binding. Lower therefore signals higher affinity. A word on the koff: it is a measure of how fast the partners let go of each other. Low readings indicate a long-lived complex, high ones a short-lived complex. In general, kon refers to a measure of how fast the partners come together. What is called EC50 is the concentration at which the effect is half-maximal. Higher therefore signals a need for much substance. In general, IC50 refers to the concentration at which inhibition is half-maximal.
